T1: recombinant human CD300LB overexpressed on Jurkat cells (human, UniProt A8K4G0 18-201)
T1 construct: also called huCD300LB; huCD300LB-expressing Jurkat cells
T1 sequence: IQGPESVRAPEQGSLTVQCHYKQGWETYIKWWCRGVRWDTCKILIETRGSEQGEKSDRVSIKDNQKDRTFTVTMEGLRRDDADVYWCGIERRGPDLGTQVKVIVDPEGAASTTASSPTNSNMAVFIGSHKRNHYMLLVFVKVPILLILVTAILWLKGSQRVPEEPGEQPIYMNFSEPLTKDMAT

T2: murine CD300LB stably expressed on Jurkat cells (mouse, UniProt Q3U497 18-209)
T2 construct: also called muCD300LB; mouse CD300LB
T2 sequence: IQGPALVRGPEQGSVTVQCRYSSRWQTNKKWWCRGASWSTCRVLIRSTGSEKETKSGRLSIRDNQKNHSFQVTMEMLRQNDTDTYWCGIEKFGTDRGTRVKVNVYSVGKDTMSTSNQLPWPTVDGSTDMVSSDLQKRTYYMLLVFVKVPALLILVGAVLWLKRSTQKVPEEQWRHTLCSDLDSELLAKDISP

B1: anti-CD300LB antibody CD-17 (antibody, V domains shown)
VH: QIQLVQSGPELKKPGETVKISCKASGYTLTDYSMHWVKQAPGKGLKWMGWINTETGEPRYGDDFKGRFAFSLETSASSAYLQINNLKNDDTATYFCATYGRSYGMDFWGQGTSVTVSS
VL: DIVLTQSPASLAVSLGQRATISCRASKSVSPSGHSYMHWYQQKPGQPPKLLIYLASNLKSGVPARFSGSGSGTDFTLNIHPVEEGDAATYYCQHNRELPPTFGGGSKLEIK
B2: anti-CD300LB antibody CD-18 (antibody, V domains shown)
VH: DVQLQESGPDLVKPSQSLSLTCTVTGYSITSGYSWHWIRQFPDNKLEWMGYILSRGDTNFNPSLKSRISITRSTSNNQFFLHFNSVTTEDTATYYCARDFFDYWGQGTTLTVSS
VL: DVLMTQTPLSLPVSLGDQASISCRSSQSIVHSNGNTYLEWYLQKPGQSPKLLIYKVSDRFSGVPDRFSGSGSGTDFTLKISRVEAEDLGVYFCFQGSHVPYTFGGGTKLEIK
B3: anti-CD300LB antibody CD-10 (antibody, V domains shown)
VH: QVQLQQSGPELVRPGVSVKISCKGSGYTFTDYAMHWVKQSHVRSREWIGVIGTYNGHTNYNQKFKGKATMTVDKSSSTAYLELARLTSEDSAIYYCARSGSYYYSMDYWGQGTSVTVSS
VL: QIVLTQSPAIMSASPGEKVTMTCSASSSVNYMHWYQQKSGTSPKRWIYDTSKLSSGVPARFSGSGSGTSYSLTISTMEAEDAATYYCQQWSSNPPMTFGGGTKLEIK

Target: T3, murine CD300A-Fc (mouse)
T3 construct: hIgG1-Fc fusion; the entry is the whole fusion chain; also called mCD300A; Mouse CD300A-Fc
T3 sequence (chain, as listed by the source limits assumed): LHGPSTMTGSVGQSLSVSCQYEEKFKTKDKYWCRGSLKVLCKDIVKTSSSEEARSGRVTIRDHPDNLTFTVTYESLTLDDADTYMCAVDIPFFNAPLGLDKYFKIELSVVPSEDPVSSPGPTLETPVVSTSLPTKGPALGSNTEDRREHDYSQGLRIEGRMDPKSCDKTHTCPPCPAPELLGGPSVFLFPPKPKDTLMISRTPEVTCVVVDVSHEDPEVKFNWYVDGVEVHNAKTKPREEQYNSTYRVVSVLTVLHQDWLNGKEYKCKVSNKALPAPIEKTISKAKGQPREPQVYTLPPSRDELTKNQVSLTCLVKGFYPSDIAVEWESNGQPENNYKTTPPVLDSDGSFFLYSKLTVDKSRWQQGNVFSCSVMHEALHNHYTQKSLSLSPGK
Experiment: SPR (Carterra LSA), antibody immobilised
From the text: In addition to the screening of antibodies for cross-reactivity by FACS analysis, surface plasmon resonance (SPR) analysis was used to determine the binding of antibodies to recombinant huCD300 and muCD300 family members (orthologs) conjugated to an Fc (human CD300A-Fc SEQ ID NO:144; human CD300LB-Fc SEQ ID NO:145; human CD300C-Fc SEQ ID NO: 146; human CD300D-Fc SEQ ID NO: 147; human CD300E-Fc SEQ ID NO: 148; human CD300F-Fc SEQ ID NO: 149; murine CD300A-Fc SEQ ID NO: 150; murine CD300LB-Fc SEQ ID NO:151; murine CD300C-Fc SEQ ID NO: 152; murine CD300D-Fc SEQ ID NO: 153, and murine CD300E-Fc SEQ ID NO: 154).
Binding of mouse anti-CD300LB IgG1 antibodies of the present disclosure to human and murine CD300 orthologs were evaluated by surface plasmon resonance (SPR) using a Carterra LSA instrument (Carterra, Salt Lake City, UT). […] A HC200M sensor chip (Carterra) was activated using the single channel flow cell with a 7-minute injection of a 1:1:1 mixture of 100 mM MES pH 5.5, 100 mM sulfo-NHS, 400 mM EDC (all reconstituted in MES pH 5.5; 100 μL of each mixed in vial immediately before running assay). After switching to the multi-channel array flow cell, the antibodies were injected over the activated chip in a 96-spot array for 10 minutes. The remaining unconjugated active groups on the chip were then blocked by injecting 1M Ethanolamine pH 8.5 (Carterra) for 7 minutes using the single channel flow cell. After priming with running buffer (HBS-TE, Carterra) with 0.5 mg/ml BSA (Sigma), the immobilized anti-CD300LB antibodies were tested for their ability to bind human and mouse recombinant CD300LB extracellular domains. Human CD300 family members and mouse CD300A were hIgG1-Fc fusions, while mouse CD300LB, mouse CD300C, mouse CD300D, and mouse CD300E were mouse IgG2a-Fc fusions (R&D Systems). Binding was assessed by injecting each analyte over the entire antibody array using the single channel flow cell. CD300 analytes were diluted to 300 nM or 600 nM in running buffer and injected in series without regeneration. Two or three buffer blanks were run between each mouse or human ortholog, respectively. Data were processed and analyzed using NextGenKIT high-throughput kinetics analysis software (Carterra).

| binding result | Binder |
| --- | --- |
| no binding (tested: 300 nM or 600 nM) | B1 |
| no binding (tested: 300 nM or 600 nM) | B2 |
| no binding (tested: 300 nM or 600 nM) | B3 |

Target: T1, recombinant human CD300LB overexpressed …
Experiment: flow cytometry, stable Jurkat cells, supernatant or 10 ug/mL, isotype subtracted
Description: (§1) Purified anti-CD300LB antibodies of the present disclosure were also evaluated for species cross-reactivity to mouse and human CD300LB stably expressed in Jurkat cells (generation of which is described above). Cells were counted and labeled with 200 nM CFSE, 500 nM VioBlue, or a combination of the two to discriminate between human CD300LB, Parental cells and mouse CD300LB. Cells were washed thoroughly with PBS containing 2% fetal bovine serum then resuspended at a total of 240,000 cells per well. Hybridoma supernatants (100 L) or purified antibodies at 10 μg/mL were added and incubated for one hour before the cells were washed again and stained with an APC-labeled anti-human or anti-mouse secondary. Cells were then analyzed using a BD FACSCanto II. Antibodies were analyzed for binding to mouse or human CD300LB by FlowJo software by gating on live cells, then the APC gMFI calculated for each labeled population by subtraction of the gMFI of the appropriate isotype control.

| gMFI [gMFI] | Binder |
| --- | --- |
| 13 | B1 |
| 114 | B2 |
| 18 | B3 |

Target: T2, murine CD300LB stably expressed on …
Experiment: as above
Description: as §1

| gMFI [gMFI] | Binder |
| --- | --- |
| 1680 | B1 |
| 643 | B2 |
| 284 | B3 |

Reference: patent US20240254227A1 (Alector, published 2024)
